Test results published in paper PMC6945527 (European Heart Journal, 2019).
Values belong to the molecule of their own block, whether it stands above or below them.

Legend:
[1] = molecular target: CAP1 of the surface plasmon resonance assay and of the binding-affinity measurement (UniProt Q01518)
[2] = molecular target: PCSK9 A514T of the binding-affinity measurement (Figure S2) (human, UniProt Q8NBP7 31-692, A514T)
[3] = molecular target: PCSK9 S668RG670E of the binding-affinity measurement (Figure S2) (human, UniProt Q8NBP7 31-692, S668R | G670E)
PCSK9 S668RG670E of the binding-affinity measurement (Figure S2), sequence (Q8NBP7 31-692 S668R/G670E): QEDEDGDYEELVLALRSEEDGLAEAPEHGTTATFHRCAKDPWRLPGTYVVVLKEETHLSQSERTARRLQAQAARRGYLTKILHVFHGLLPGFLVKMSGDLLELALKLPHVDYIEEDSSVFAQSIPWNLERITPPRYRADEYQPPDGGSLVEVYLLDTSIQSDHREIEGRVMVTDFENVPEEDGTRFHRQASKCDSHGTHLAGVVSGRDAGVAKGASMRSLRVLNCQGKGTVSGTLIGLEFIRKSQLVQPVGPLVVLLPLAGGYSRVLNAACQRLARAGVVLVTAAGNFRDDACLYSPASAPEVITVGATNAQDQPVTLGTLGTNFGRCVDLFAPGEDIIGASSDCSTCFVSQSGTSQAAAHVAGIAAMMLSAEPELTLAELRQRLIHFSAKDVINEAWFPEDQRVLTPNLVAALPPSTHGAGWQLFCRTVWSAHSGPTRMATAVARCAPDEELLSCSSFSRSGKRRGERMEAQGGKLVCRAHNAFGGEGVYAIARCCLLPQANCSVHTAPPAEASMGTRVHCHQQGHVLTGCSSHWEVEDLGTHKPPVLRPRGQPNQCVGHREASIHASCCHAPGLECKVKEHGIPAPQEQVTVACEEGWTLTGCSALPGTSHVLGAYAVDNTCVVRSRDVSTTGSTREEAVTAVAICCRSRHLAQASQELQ

[4] = molecular target: PCSK9 WT of the binding-affinity measurement (Figure S2) (human, UniProt Q8NBP7 31-692)
PCSK9 WT of the binding-affinity measurement (Figure S2), sequence (Q8NBP7 31-692): as the sequence (Q8NBP7 31-692 S668R/G670E) above, with R638S, E640G counted along it

PCSK9 A514T of the binding-affinity measurement (Figure S2), sequence (Q8NBP7 31-692 A514T): as the sequence (Q8NBP7 31-692 S668R/G670E) above, with A484T, R638S, E640G counted along it

Kd [1]: 960 nM
Molecule: PCSK9 G670E of the binding-affinity measurement (Figure S2) (from UniProt Q8NBP7 31-692) (natural protein)

Kd [2]: 110 nM
Kd [3]: 2320 nM
Kd [4]: 450 nM
B1: CAP1 of the surface plasmon resonance assay and of the binding-affinity measurement (natural protein)
chain: MADMQNLVERLERAVGRLEAVSHTSDMHRGYADSPSKAGAAPYVQAFDSLLAGPVAEYLKISKEIGGDVQKHAEMVHTGLKLERALLVTASQCQQPAENKLSDLLAPISEQIKEVITFREKNRGSKLFNHLSAVSESIQALGWVAMAPKPGPYVKEMNDAAMFYTNRVLKEYKDVDKKHVDWVKAYLSIWTELQAYIKEFHTTGLAWSKTGPVAKELSGLPSGPSAGSCPPPPPPCPPPPPVSTISCSYESASRSSLFAQINQGESITHALKHVSDDMKTHKNPALKAQSGPVRSGPKPFSAPKPQTSPSPKRATKKEPAVLELEGKKWRVENQENVSNLVIEDTELKQVAYIYKCVNTTLQIKGKINSITVDNCKKLGLVFDDVVGIVEIINSKDVKVQVMGKVPTISINKTDGCHAYLSKNSLDCEIVSAKSSEMNVLIPTEGGDFNEFPVPEQFKTLWNGQKLVTTVTEIAG
